The text below walks through data of patent US20240043869A1.

Where only a bound is given, the exact number is not on record here.

The target in this assay is rAAV9 vector (AAV9 capsid: full, intermediate and empty capsids) comprising a mini-dystrophin transgene (adeno-associated virus serotype 9 (AAV9)). Briefly: affinity chromatography lifecycle study, unbound vg in flow through, resin challenge 7.5x10^13 vg/mL resin.

In the case of “POROS CaptureSelect AAV9 affinity resin ligand (VHH)”, the % unbound vg is < 2%.
